The results in this text go back to PMC6681466 (Chemsuschem, 2018).

For orientation: kcat means the number of substrate molecules converted per active site and unit of time at saturation. For orientation: kcat/Km means the turnover number divided by the Michaelis constant.

Data set [1] has as its target T1, Cs7β-HSDH (Clostridium sardiniense, UniProt G9FRD6).
T1 sequence (G9FRD6 1-261): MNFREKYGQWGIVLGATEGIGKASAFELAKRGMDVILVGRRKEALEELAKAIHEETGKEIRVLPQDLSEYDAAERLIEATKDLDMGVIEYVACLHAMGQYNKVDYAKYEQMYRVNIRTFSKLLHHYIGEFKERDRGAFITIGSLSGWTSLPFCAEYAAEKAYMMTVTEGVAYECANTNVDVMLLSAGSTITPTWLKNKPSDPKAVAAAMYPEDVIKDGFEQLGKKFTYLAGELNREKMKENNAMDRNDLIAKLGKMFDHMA
The data set is described as follows: NADPH formation at […] nm, fit with substrate inhibition. Format: biochemical. The conditions noted are these: 1.0 mM UDCA, 50 mM KPi pH 8.0, 10% methanol, 25 °C.

Data set [2] relates to Ls7β-HSDH. Description: NADH consumption at […] nm, Michaelis-Menten. Type of data set: biochemical, Levilactobacillus spicheri. Particulars: 0.5 mM NADH, 50 mM KPi pH 8.0, 10% methanol, 25 °C.
In data set [3] the target is T1, Cs7β-HSDH. Description: NADPH formation at […] nm, fit with substrate inhibition. Particulars: 2.0 mM NADP+, 50 mM KPi pH 8.0, 10% methanol, 25 °C. Format: biochemical.
For data set [4], the system named is Ls7β-HSDH. The data set is described as follows: NADH formation at […] nm, fit with substrate inhibition. The conditions noted are these: read-out: UDCA / K m / [mmol L^-1]; 2.0 mM NAD+, 50 mM KPi pH 8.0, 10% methanol, 25 °C. Type of data set: biochemical, Levilactobacillus spicheri.
The test system of data set [5] is Ls7β-HSDH. The data set is described as above. Type of data set: biochemical, Levilactobacillus spicheri. The conditions noted are these: 2.0 mM NAD+, 50 mM KPi pH 8.0, 10% methanol, 25 °C.
Substrate in data set [6]: [H][C@]12CC(=O)[C@@]3([H])[C@]4([H])CC[C@H]([C@H](C)CCC(=O)O)[C@@]4(C)CC[C@]3([H])[C@@]1(C)CC[C@@H](O)C2
Description: purified protein. Particulars: 0.5 mM NADPH, 50 mM KPi pH 8.0, 10% methanol, 25 °C.

Substrate in data set [7]: C[C@H](CCC(=O)O)[C@H]1CC[C@H]2[C@@H]3C(=O)C[C@@H]4C[C@H](O)CC[C@]4(C)[C@H]3C[C@H](O)[C@]12C
The data set is described as follows: purified protein. The conditions noted are these: 0.5 mM NADPH, 50 mM KPi pH 8.0, 10% methanol, 25 °C.

Substrate in data set [8]: C[C@H](CCC(=O)O)[C@H]1CC[C@H]2[C@@H]3[C@@H](O)C[C@@H]4C[C@H](O)CC[C@]4(C)[C@H]3CC[C@]12C
The data set is described as follows: purified protein. The conditions noted are these: 2.0 mM NADP+, 50 mM KPi pH 8.0, 10% methanol, 25 °C.

Consider `NC(=O)c1ccc[n+]([C@@H]2O[C@H](COP(=O)(O)OP(=O)(O)OC[C@H]3O[C@@H](n4cnc5c(N)ncnc54)[C@H](OP(=O)(O)O)[C@@H]3O)[C@@H](O)[C@H]2O)c1` [NADP^+], for which, at Cs7β-HSDH [1], the “NADP^+ / K i /” value was 10000 ± 3000 µM.
Regarding `C[C@H](CCC(=O)O)[C@H]1CC[C@H]2[C@@H]3C(=O)C[C@@H]4C[C@H](O)CC[C@]4(C)[C@H]3C[C@H](O)[C@]12C` [7-oxo-DCA], the Km in the data set on Ls7β-HSDH [2] (read-out: 7-oxo-DCA / K m / [mmol L^-1]) worked out at 131 ± 28 µM.
Turning to `C[C@H](CCC(=O)O)[C@H]1CC[C@H]2[C@@H]3[C@@H](O)C[C@@H]4C[C@H](O)CC[C@]4(C)[C@H]3CC[C@]12C` [UDCA], the “UDCA / K i /” value on Cs7β-HSDH [3] came out at 1400 ± 300 µM; in the data set on Ls7β-HSDH [5], 800 ± 300 µM. In addition, in the data set with Ls7β-HSDH [4], the Km came out at 156 ± 51 µM.
As for `C[C@H](CCC(=O)O)[C@H]1CC[C@H]2[C@@H]3C(=O)C[C@@H]4C[C@H](O)CC[C@]4(C)[C@H]3CC[C@]12C` [7-oxo-LCA], the Km in the data set on Ls7β-HSDH [2] (read-out: 7-oxo-LCA / K m / [mmol L^-1]) was determined as 38 ± 14 µM.

B1: Cs7β-HSDH (Clostridium sardiniense) (protein)
chain: T1 sequence (G9FRD6 1-261)
For the molecule B1, in the data set “purified protein [6]”, the Km amounted to 128 ± 27 µM, the kcat was 1.37 s⁻¹ and the specificity constant (kcat/Km) was determined as 10700 M⁻¹ s⁻¹. In “purified protein [7]”, the Km turned out to be 106 ± 5 µM, the kcat is 2.27 ± 0.03 s⁻¹ and the catalytic efficiency (kcat/Km) was 21300 M⁻¹ s⁻¹. In the data set “purified protein [8]”, the Km is 160 ± 30 µM, the kcat is 3.61 ± 0.34 s⁻¹ and the kcat/Km turned out to be 22600 M⁻¹ s⁻¹.
